One molecule from article PMC4183432, “Evidence of a Bacterial Receptor for Lysozyme: Binding of Lysozyme to the Anti-σ Factor RsiV Controls Activation of the ECF σ Factor σ^V” (PLoS Genetics, 2014) can be followed below.

The assay has as its target T1, GST-RsiV^59–285 (B. subtilis, UniProt O05403 59-285).
T1 construct: plasmid pKBW204 (pDEST15); source: E. coli BL21(DE3), purified (Glutathione HiCap Matrix); not shown: GST, N-terminal, kept
T1 sequence (looked up): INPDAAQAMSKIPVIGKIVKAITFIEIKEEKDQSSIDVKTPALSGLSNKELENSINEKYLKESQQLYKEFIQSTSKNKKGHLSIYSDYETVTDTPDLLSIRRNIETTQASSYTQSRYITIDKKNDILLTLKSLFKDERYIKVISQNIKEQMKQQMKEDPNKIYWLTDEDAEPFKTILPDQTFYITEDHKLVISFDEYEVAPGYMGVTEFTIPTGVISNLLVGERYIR
Nature of the assay: pull-down; 2 mg purified GST-RsiV^59–285 on a Glutathione HiCap Matrix column in PBS-EW; 2 mg of HEW lysozyme, human lysozyme or mutanolysin applied; washed with PBS-EW, eluted with TNGT; SDS-PAGE. The conditions noted are these: both partners purified.

B1: human lysozyme (enzyme, UniProt P61626 19-148, looked up)
chain: KVFERCELARTLKRLGMDGYRGISLANWMCLAKWESGYNTRATNYNAGDRSTDYGIFQINSRYWCNDGKTPGAVNACHLSCSALLQDNIADAVACAKRVVRDPQGIRAWVAWRNRCQNRDVRQYVQGCGV
notes: Human lysozyme, a C-type lysozyme (58% identity to HEW lysozyme); also called HUM lysozyme
As for B1, the binding result is reported as “binds”.
